Key:
[1] = tested on: GV2 Zα (giant virus Zα domain) (giant virus (metagenome)); assay: MST; conditions: 20 mM NaPi pH 6.4, 100 mM KCl, 1 mM DTT, 0.5 mM EDTA (LiCl replaces KCl where noted); ITC 35 C; MST 25 C with 20 nM protein (labelling without DTT; competition …)
ADAR1 Zβ [2] = molecular target: T1, ADAR1 Zβ (Homo sapiens, UniProt P55265 291-366); assay: NMR; 100 µM RNA; large CSP increase; 20 mM NaPi pH 6.4, 100 mM KCl, 1 mM DTT, 0.5 mM EDTA (LiCl replaces KCl where noted); ITC 35 C; MST 25 C with 20 nM protein (labelling without DTT); competition; conditions: protein: recombinant; tags: N-terminal 6xHis, thrombin site, T7 tag
T1 sequence: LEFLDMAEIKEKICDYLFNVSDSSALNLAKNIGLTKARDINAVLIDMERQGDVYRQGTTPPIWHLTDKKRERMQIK

ADAR1 Zα [3] = molecular target: T2, ADAR1 Zα (Homo sapiens, UniProt P55265 139-202); assay: NMR; 100 µM RNA; CSPs similar to ssUUAGGG; 20 mM NaPi pH 6.4, 100 mM KCl, 1 mM DTT, 0.5 mM EDTA (LiCl replaces KCl where noted); ITC 35 C; MST 25 C with 20 nM protein (labelling without DTT); competition; conditions: protein: recombinant; tags: N-terminal 6xHis, thrombin site, T7 tag; chain copies: 2
T2 sequence: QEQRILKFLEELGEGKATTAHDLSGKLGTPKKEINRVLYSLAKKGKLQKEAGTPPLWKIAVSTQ

ADAR1 Zα [4] = molecular target: T2, ADAR1 Zα; assay: NMR; extensive peak shifts; 20 mM NaPi pH 6.4, 100 mM KCl, 1 mM DTT, 0.5 mM EDTA (LiCl replaces KCl where noted); ITC 35 C; MST 25 C with 20 nM protein (labelling without DTT); competition; conditions: protein: recombinant; tags: N-terminal 6xHis, thrombin site, T7 tag; no G4; transient structure
ADAR1 Zα [5] = molecular target: T2, ADAR1 Zα; assay: NMR; 30 µM RNA; CSPs similar to UUACCG at 100 µM; 20 mM NaPi pH 6.4, 100 mM KCl, 1 mM DTT, 0.5 mM EDTA (LiCl replaces KCl where noted); ITC 35 C; MST 25 C with 20 nM protein (labelling without DTT); competition; conditions: protein: recombinant; tags: N-terminal 6xHis, thrombin site, T7 tag; predominantly single strand at 30 µM
ADAR1 Zβ [6] = molecular target: T1, ADAR1 Zβ; assay: MST; ligand-depletion range, may not be exact; 20 mM NaPi pH 6.4, 100 mM KCl, 1 mM DTT, 0.5 mM EDTA (LiCl replaces KCl where noted); ITC 35 C; MST 25 C with 20 nM protein (labelling without DTT); competition; conditions: protein: recombinant; tags: N-terminal 6xHis, thrombin site, T7 tag; parallel G4
ADAR1 Zα [7] = molecular target: T2, ADAR1 Zα; assay: MST; 20 mM NaPi pH 6.4, 100 mM KCl, 1 mM DTT, 0.5 mM EDTA (LiCl replaces KCl where noted); ITC 35 C; MST 25 C with 20 nM protein (labelling without DTT); competition; conditions: protein: recombinant, tags: N-terminal 6xHis, thrombin site, T7 tag
ADAR1 Zβ [8] = molecular target: T1, ADAR1 Zβ; assay: ITC; 35 C; N=1.12; 20 mM NaPi pH 6.4, 100 mM KCl, 1 mM DTT, 0.5 mM EDTA (LiCl replaces KCl where noted); ITC 35 C; MST 25 C with 20 nM protein (labelling without DTT); competition; conditions: protein: recombinant; tags: N-terminal 6xHis, thrombin site, T7 tag; parallel G4
ADAR1 Zβ [9] = molecular target: T1, ADAR1 Zβ; assay: MST; 20 mM NaPi pH 6.4, 100 mM KCl, 1 mM DTT, 0.5 mM EDTA (LiCl replaces KCl where noted); ITC 35 C; MST 25 C with 20 nM protein (labelling without DTT); competition; conditions: protein: recombinant; tags: N-terminal 6xHis, thrombin site, T7 tag; parallel G4
ZBP1 Zα1 = molecular target: T3, ZBP1 Zα1 (Homo sapiens, UniProt Q9H171 1-70); assay: NMR; significant peak disappearance; LLPS; 20 mM NaPi pH 6.4, 100 mM KCl, 1 mM DTT, 0.5 mM EDTA (LiCl replaces KCl where noted); ITC 35 C; MST 25 C with 20 nM protein (labelling without DTT); competition; conditions: protein: recombinant; tags: N-terminal 6xHis, thrombin site, T7 tag; parallel G4
T3 sequence: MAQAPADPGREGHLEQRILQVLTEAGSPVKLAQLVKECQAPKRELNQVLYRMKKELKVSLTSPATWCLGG

ADAR1 Zα [10] = molecular target: T2, ADAR1 Zα; assay: ITC; 35 C; N=1.44; 20 mM NaPi pH 6.4, 100 mM KCl, 1 mM DTT, 0.5 mM EDTA (LiCl replaces KCl where noted); ITC 35 C; MST 25 C with 20 nM protein (labelling without DTT); competition; conditions: protein: recombinant; tags: N-terminal 6xHis, thrombin site, T7 tag; chain copies: 2; parallel G4

In the case of GGGAGGGCGGGAGGG [ALU-GQRNA], the Kd [1] is reported as 1000 nM.

UUAGGG (structured_RNA) [GQ-UUAGGG 6-mer (100 µM)]: binds (ADAR1 Zβ [2]); binds (ADAR1 Zα [3]).

CCGACCGCCCGACCG (ssRNA) [ALU-mutRNA]: binds (ADAR1 Zα [4]).

UUAGGG (ssRNA) [ssUUAGGG 6-mer (30 µM)]: binds (ADAR1 Zα [5]).

With UUAGGGUUAGGGUUAGGGUUAGGG (structured_RNA) [TERRA-GQRNA] the Kd (ADAR1 Zβ [6]) was 4.2 ± 2.2 nM and the Kd (ADAR1 Zα [7]; chain copies: 2, parallel G4) was 19.3 ± 13.7 nM.

In the case of GGGAGGGCGGGAGGG (structured_RNA) [ALU-GQRNA], the Kd (ADAR1 Zβ [8]) is reported as 1810 ± 300 nM, the Kd (ADAR1 Zα [7]; chain copies: 2, parallel G4) is reported as 116 ± 69.3 nM and the Kd (ADAR1 Zβ [9]) is reported as 336 ± 181 nM. For the same molecule, the binding result (ZBP1 Zα1) was “binds” and the Kd (ADAR1 Zα [10]) was 430 ± 100 nM.

UUACCGUUACCGUUACCGUUACCG (ssRNA) [TERRA-mutRNA] showed a Kd (ADAR1 Zα [7]; no G4, transient structure) of 35.9 ± 8.9 nM.

— paper PMC13136903, “Zα and Zβ domains of ADAR1 and ZBP1 bind G-quadruplexes with nanomolar affinities, establishing Zβ as a G-quadruplex-specific domain”
